Experiments:
[1] = biological target: zonula occludens-1 (ZO-1), endogenous protein of prostate cancer cells and tumor specimens (UniProt Q07157); experiment: in situ proximity ligation assay in PC-3CTRwt cells, 50 nM CT for 30 seconds
[2] = biological target: zonula occludens-1 (ZO-1), endogenous protein of prostate cancer cells and tumor specimens (UniProt Q07157); experiment: cell-based or functional assay
[3] = biological target: T1, zonula occludens-1 (ZO-1), endogenous protein of prostate cancer cells and tumor specimens (UniProt Q07157 1-1748, limits assumed); experiment: GST pull-down from PC-3 cell lysates, ZO-1 immunoblot
T1 construct: whole, on cells; Intracellular protein; detected in cell lysates or fixed cells with anti-ZO-1 serum; The cells and tissues are human; also called tight junction protein 1; TJP-1

[4] = biological target: T1, zonula occludens-1 (ZO-1), endogenous …; experiment: in situ proximity ligation assay in PC-3CTRΔESS cells
[5] = biological target: T2, ZO-1wt-YFP (wild-type ZO-1 fused to yellow fluorescent protein, ZO-1wt-EYFP-N1) (UniProt Q07157 1-1748); experiment: acceptor photobleaching FRET microscopy in live PC-31 cells
T2 construct: whole, on cells; also called ZO-wt-YFP; ZO-1-YFP; not shown: EYFP of the EYFP-N1 plasmid
T2 sequence (Q07157 whole entry, the tested form may be a part): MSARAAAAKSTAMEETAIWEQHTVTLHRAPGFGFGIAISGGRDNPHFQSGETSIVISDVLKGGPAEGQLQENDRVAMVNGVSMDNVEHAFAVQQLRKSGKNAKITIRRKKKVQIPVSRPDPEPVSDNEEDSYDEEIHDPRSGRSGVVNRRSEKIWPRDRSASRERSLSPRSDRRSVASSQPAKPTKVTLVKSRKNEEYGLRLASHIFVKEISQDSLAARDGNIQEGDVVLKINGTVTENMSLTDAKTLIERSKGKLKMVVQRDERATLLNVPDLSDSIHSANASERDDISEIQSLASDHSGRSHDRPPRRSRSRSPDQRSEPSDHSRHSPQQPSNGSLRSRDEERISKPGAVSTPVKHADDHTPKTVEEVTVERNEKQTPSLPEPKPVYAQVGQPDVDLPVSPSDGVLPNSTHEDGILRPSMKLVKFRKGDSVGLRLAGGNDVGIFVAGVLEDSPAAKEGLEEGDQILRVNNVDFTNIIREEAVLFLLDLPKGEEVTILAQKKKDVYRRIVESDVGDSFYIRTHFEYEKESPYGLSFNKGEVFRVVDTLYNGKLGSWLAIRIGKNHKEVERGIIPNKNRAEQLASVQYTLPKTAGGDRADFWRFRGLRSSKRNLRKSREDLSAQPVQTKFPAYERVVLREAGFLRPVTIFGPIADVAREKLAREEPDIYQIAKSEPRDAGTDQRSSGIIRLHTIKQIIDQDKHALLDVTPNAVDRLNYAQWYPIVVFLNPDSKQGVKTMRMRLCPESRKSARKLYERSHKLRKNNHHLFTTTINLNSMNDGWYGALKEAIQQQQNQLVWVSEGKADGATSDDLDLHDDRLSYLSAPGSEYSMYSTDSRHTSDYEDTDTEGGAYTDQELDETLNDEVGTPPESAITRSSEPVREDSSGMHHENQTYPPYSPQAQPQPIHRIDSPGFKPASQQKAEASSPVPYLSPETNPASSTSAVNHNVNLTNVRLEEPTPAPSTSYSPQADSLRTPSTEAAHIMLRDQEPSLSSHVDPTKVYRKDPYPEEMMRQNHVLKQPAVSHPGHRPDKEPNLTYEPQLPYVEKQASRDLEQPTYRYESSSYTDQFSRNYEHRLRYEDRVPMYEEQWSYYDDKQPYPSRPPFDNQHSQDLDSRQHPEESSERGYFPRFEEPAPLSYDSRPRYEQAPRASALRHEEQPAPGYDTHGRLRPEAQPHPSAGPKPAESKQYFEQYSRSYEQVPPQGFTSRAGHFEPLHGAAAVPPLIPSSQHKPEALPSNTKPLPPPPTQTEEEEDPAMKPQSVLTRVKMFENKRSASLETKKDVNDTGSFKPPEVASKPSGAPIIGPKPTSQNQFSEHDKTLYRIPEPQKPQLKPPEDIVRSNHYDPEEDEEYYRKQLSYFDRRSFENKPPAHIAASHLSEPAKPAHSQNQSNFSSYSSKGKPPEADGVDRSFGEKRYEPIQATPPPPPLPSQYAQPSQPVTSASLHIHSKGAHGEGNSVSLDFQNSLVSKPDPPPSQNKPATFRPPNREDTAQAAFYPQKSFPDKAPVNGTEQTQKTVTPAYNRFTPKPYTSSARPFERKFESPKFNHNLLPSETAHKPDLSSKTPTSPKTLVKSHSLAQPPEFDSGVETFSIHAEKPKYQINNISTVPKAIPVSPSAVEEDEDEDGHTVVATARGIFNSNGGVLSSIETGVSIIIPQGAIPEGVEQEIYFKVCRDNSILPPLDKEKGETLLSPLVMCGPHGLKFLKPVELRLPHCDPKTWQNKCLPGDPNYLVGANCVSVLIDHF

Sequence of zonula occludens-1 (ZO-1), endogenous protein of prostate cancer cells and tumor specimens (UniProt Q07157) (Q07157 whole entry): as the sequence (Q07157 whole entry, the tested form may be a part) above
T1 sequence (Q07157 whole entry): as the sequence (Q07157 whole entry, the tested form may be a part) above

## FLAG-CTRwt (full-length wild-type calcitonin receptor, FLAG-tagged, expressed in PC-3 / PC-31 cells) (from UniProt P30988 25-474)
[1]
  fold increase in CTR-ZO-1 interactions (PLA dots) after CT against no CT: 80 fold
[2]
  decrease in transepithelial electric resistance (TER) of polarized PC-3 cells: 40%
  invasion through Matrigel after 50 nM CT: 2.5 fold

B1: GST-CTR-CΔESS fusion protein (GST fused to the intracellular C-terminal domain of CTRΔESS, aa 441-476) (other, human, UniProt P30988 441-474, looked up)
chain: YICHQELRNEPANNQGEESAEIIPLNIIEQAAAA
notes: range 441-476; also called CTR-C-ΔPDZ; not shown: GST from the pGEX vector
[3]
  binding result: no binding (tested: 2 µg fusion protein)

B2: FLAG-CTRΔESS (full-length calcitonin receptor with the C-terminal PDZ-binding motif ESSA replaced by AAAA, FLAG-tagged) (receptor, human, UniProt P30988 25-474, looked up)
chain: AFSNQTYPTIEPKPFLYVVGRKKMMDAQYKCYDRMQQLPAYQGEGPYCNRTWDGWLCWDDTPAGVLSYQFCPDYFPDFDPSEKVTKYCDEKGVWFKHPENNRTWSNYTMCNAFTPEKLKNAYVLYYLAIVGHSLSIFTLVISLGIFVFFRSLGCQRVTLHKNMFLTYILNSMIIIIHLVEVVPNGELVRRDPVSCKILHFFHQYMMACNYFWMLCEGIYLHTLIVVAVFTEKQRLRWYYLLGWGFPLVPTTIHAITRAVYFNDNCWLSVETHLLYIIHGPVMAALVVNFFFLLNIVRVLVTKMRETHEAESHMYLKAVKATMILVPLLGIQFVVFPWRPSNKMLGKIYDYVMHSLIHFQGFFVATIYCFCNNEVQTTVKRQWAQFKIQWNQRWGRRPSNRSARAAAAAAEAGDIPIYICHQELRNEPANNQGEESAEIIPLNIIEQAAAA
notes: whole, on cells; also called FLAG-CTR-ΔPDZ; CTRΔPDZ; not shown: FLAG tag at the 5' end of the construct
[4]
  binding result: no binding

B3: CTRΔESS-CFP (calcitonin receptor with ESSA replaced by AAAA, fused to cyan fluorescent protein, CTRΔESS-ECFP-N1) (receptor, human, UniProt P30988 25-474, looked up)
chain: AFSNQTYPTIEPKPFLYVVGRKKMMDAQYKCYDRMQQLPAYQGEGPYCNRTWDGWLCWDDTPAGVLSYQFCPDYFPDFDPSEKVTKYCDEKGVWFKHPENNRTWSNYTMCNAFTPEKLKNAYVLYYLAIVGHSLSIFTLVISLGIFVFFRSLGCQRVTLHKNMFLTYILNSMIIIIHLVEVVPNGELVRRDPVSCKILHFFHQYMMACNYFWMLCEGIYLHTLIVVAVFTEKQRLRWYYLLGWGFPLVPTTIHAITRAVYFNDNCWLSVETHLLYIIHGPVMAALVVNFFFLLNIVRVLVTKMRETHEAESHMYLKAVKATMILVPLLGIQFVVFPWRPSNKMLGKIYDYVMHSLIHFQGFFVATIYCFCNNEVQTTVKRQWAQFKIQWNQRWGRRPSNRSARAAAAAAEAGDIPIYICHQELRNEPANNQGEESAEIIPLNIIEQAAAA
notes: whole, on cells; also called CTRΔESS (CTRΔPDZ)-CFP; not shown: ECFP of the ECFP-N1 plasmid
[5]
  binding result: no binding

Reference: US20140286952A1 (BOARD OF SUPERVISORS FOR THE UNIVERSITY OF LOUISIA SYSTEM …, published 2014)
